The experiment has as its target Aβ42 (human) (UniProt P05067).

Chain of Aβ42 (human) (P05067 672-713): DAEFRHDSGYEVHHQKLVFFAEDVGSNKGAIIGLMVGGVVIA

B1: S100B (natural protein)
chain: MSELEKAMVALIDVFHQYSGREGDKHKLKKSELKELINNELSHFLEEIKEQEVVDKVMETLDNDGDGECDFQEFMAFVAMVTTACHEFFEHE
For B1, the reaction half time (t1/2) of ThT-monitored fibril formation of 5 μM monomeric Aβ42 in the presence of 15 μM S100B, 50 mM Hepes pH 7.4, 1.1 mM CaCl2, 37°C, quiescent (Aβ42 alone t1/2 = 0.8 h) was 2.2 h.

For the origin of these results see PMC6596341.
